In US20220112288A1 (published 2022):

What was measured:
[1] = molecular target: T1, Recombinant human CD4 (R&D Systems, Cat. 10327-CD) (human, UniProt P01730 26-390, limits assumed); assay: BLI Octet, non-clonal supernatant on AMC sensor, 100 nM human CD4;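 further: hybridoma supernatants diluted 1:3, antibodies captured on AMC biosensors, association and dissociation with CD4 followed, curves smoothed and fit locally with 1:1 binding model for single-point kinetics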
T1 construct: Bought reagent; also called huCD4

[2] = molecular target: T1, Recombinant human CD4 (R&D Systems, …); assay: BLI Octet, non-clonal supernatant on AMC sensor, 100 nM human CD4, 1:1 local fit;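 further: Single-concentration kinetics per supernatant, with the 1:1 model fitted across both the association and dissociation phases of the sensorgram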

Response [1] | Kd [2] | koff [2] | kon [2] | Binder
0.21 | 2.8 nM | 0.00048 s⁻¹ | 170000 M⁻¹ s⁻¹ | 75110_03L12A (antibody, V domains shown, Tested as non-clonal AlivaMab Mouse Kappa hybridoma supernatant, captured by anti-mouse IgG Fc sensor) VH: QVQLQQWGAGLLKPSETLSLTCAVYGGSFSGYYWSWIRQPPGKGLEWIGEINHSGSTNYNPSLKSRVTISVDTSENQFSLTLISVTAADTAVYYCVRLINWFDPWGQGTLVTVSS VL: DIQMTQSPSSVSASVGDRVTITCRASQDISNWLAWYQQKPGKAPKLLIFAASSLQSGVPSRFSGSGSGTDFTLTISSLQPDDFATYYCQQANSFPYTFGQGTNLGIK
0.26 | 3 nM | 0.0006 s⁻¹ | 200000 M⁻¹ s⁻¹ | 75110_12K21A (antibody, V domains shown, Tested as non-clonal AlivaMab Mouse Kappa hybridoma supernatant, captured by anti-mouse IgG Fc sensor) VH: QVQLQQWGAGLLKPSETLSLTCAVSGGSFSGYYWSWIRQPPGKGLEWIGEINHSGSTNCNPSLKSRVTISVDTSNNQFSLKLSSVTAADTAVYYCARVLNYFDYWGQGTLVTVSS VL: DIQMTQSPSSVSASVGDRVTITCRASPDIANWLAWYQQKPGKAPELLIYAASSLQSGVPSRFSGSGSGTDFTLTISSLQPEDFATYFCQQANSFPLTFGGGTKVESK
0.12 | 2.04 nM | 0.000315 s⁻¹ | 154000 M⁻¹ s⁻¹ | 75110_13P21A (antibody, V domains shown, Tested as non-clonal AlivaMab Mouse Kappa hybridoma supernatant, captured by anti-mouse IgG Fc sensor) VH: QVQLQQWGAGLLKPSETLSLTCAVSGGSFSGYYWSWIRQPPGKGLEWIGEINHSGSTNCNPSLKSRVTISVDTSNNQFSLKLSSVTAADTAVYYCARVLNYFDYWGQGTLVTVSS VL: DIQMTQSPSSVSASVGDRVTITCRASPDIANWLAWYQQKPGKAPELLIYAASSLQSGVPSRFSGSGSGTDFTLTISSLQPEDFATYFCQQANSFPLTFGGGTKVESK
0.09 | 2.5 nM | 0.00047 s⁻¹ | 190000 M⁻¹ s⁻¹ | 75110_06D16A (antibody, V domains shown, Tested as non-clonal AlivaMab Mouse Kappa hybridoma supernatant, captured by anti-mouse IgG Fc sensor) VH: QVQLQQWGAGLLKPSETLSLTCAVYGGSFSGYYWSWIRQPPGKGLEWIGEINHSGSTNYNPSLKSRVTISVVTSKNQFSLKLSSVTAADTAVYYCARVLNWFDPWGQGTLVTVSS VL: DIQMTQSPSSVSASVGDRVTITCRASQDIADWLAWYQQKPGKAPKLLIYAASSFQSGVPSRFSGSGSGTDFTLTISSLQPEDFATYFCQQANSFPYTFGQGTKLEIK
0.19 | 3.2 nM | 0.00051 s⁻¹ | 160000 M⁻¹ s⁻¹ | 75110_13C13A (antibody, V domains shown, Tested as non-clonal AlivaMab Mouse Kappa hybridoma supernatant, captured by anti-mouse IgG Fc sensor) VH: QVQLQQWGAGLLKPSETLSLTCAVSGGSFSGYYWSWIRQPPGKGLEWIGEINHSGSTNCNPSLKSRVTISVDTSKNQFSLKLSSVTAADTAMYYCARVLNFFDYWGQGTLVTVSS VL: DIQMTQTPSSVSASVGDRVTITCRASPGISNWLAWYQQKPGKAPELLIYAASSLQSGVPSRFSGSGSGTDFTLTISSLQPEDFATYFCQQANSFPLTFGGGTKVESK
0.26 | 1.1 nM | 0.00013 s⁻¹ | 110000 M⁻¹ s⁻¹ | 75110_01D24A (antibody, V domains shown, Tested as non-clonal AlivaMab Mouse Kappa hybridoma supernatant, captured by anti-mouse IgG Fc sensor) VH: QVQLQQWGAGLLKPSETLSLTCAVYGGSFSGYYWSWIRQPPGKGLEWIGEINHSGSTNYNPSLKSRVTISVDTSENQFSLKLNSVTAADTAVYYCARLVNWFDPWGQGTLVTVSS VL: EIQMTQSPSSVSASVGDRVTITCRASQDISNWLAWYQQKPGKAPNLLIFAASSLQTGVPSRFSGSGSGTDFTLTISSLQPDDFATYYCQQANSFPYSFGQGTNLGIK
0.1 | 290 nM | 0.011 s⁻¹ | 37000 M⁻¹ s⁻¹ | 75110_09G15A (antibody, V domains shown, Tested as non-clonal AlivaMab Mouse Kappa hybridoma supernatant, captured by anti-mouse IgG Fc sensor) VH: EVQLVESGGGLVQPGGSLRLSCAASGFTFSDYWMSWVRQAPGKGLEWVANINQDGSEKYSVDSVKGRFTISRDNAKNSLYLQMNSLRAEDTAIFYCAREGGQWLALDYWGQGTLVTVSS VL: DIQMTQSPSSVSASVGDRVTITCRASQGISSWLAWYQQKPGKAPKLLIYGASSLQSGVPSRFSGSGSGTDFTLTINSLQPEDFTTYYCQQANIFPWTFGQGTKVEIK
0.12 | 13 nM | 0.0014 s⁻¹ | 100000 M⁻¹ s⁻¹ | 75110_05L07A (antibody, V domains shown, Tested as non-clonal AlivaMab Mouse Kappa hybridoma supernatant, captured by anti-mouse IgG Fc sensor) VH: EVQLVESGGGLVQPGGSLRLSCAASGFTFSSYWMSWVRQAPGKGLEWVANINQDGSDKYYVDSVKGRFTISRDNVKNSLYLQINSLRAEDTAVYYCAREGGQWLTLDYWGQGTLVTVSS VL: not shown
0.17 | 1.8 nM | 0.00022 s⁻¹ | 120000 M⁻¹ s⁻¹ | 75110_04P08A (antibody, V domains shown, Tested as non-clonal AlivaMab Mouse Kappa hybridoma supernatant, captured by anti-mouse IgG Fc sensor) VH: QVQLQQWGAGLLKPSETLSLTCAVYGGSLSGYYWSWIRQSPGKGLEWIGEINQSGSTNYNPSLKSRVTISVDTSKDQFSLRLTSVTAADTAVYYCTRVLNWFDPWGRGTLVTVSS VL: DIQMTQSPSSVSASVGDRVTLTCRASQDISNWLAWYQQKPGKAPKLLIYAASSLQSGVPSRFSGSGSGTDFTLTISSLQTEDFATYYCQQANSFPYTFGQGTKLEIK
0.28 | 11 nM | 0.0013 s⁻¹ | 120000 M⁻¹ s⁻¹ | 75110_01J09A (antibody, V domains shown, Tested as non-clonal AlivaMab Mouse Kappa hybridoma supernatant, captured by anti-mouse IgG Fc sensor) VH: EVQLVESGGGLVQPGGSLRLSCVASGFTFSSYWMSWVRQAPGKGLEWVANTKEDGSDKYYVDSVKGRFTICRDNAKNSLYLQMNSLRAEDTAVYYCAREGGQWLALDYWGQGTLVTVSS VL: DIQMTQSPSSVSASVGDRVTINCRASQGISSWLAWYQQKPGKAPNLLIFGASSLQSGVPSRFSGSGFGTDFSLTITTLQPEDFATYHCQQANSFPWTFGQGTKVEIK
0.09 | < 0.001 nM | < 1e-07 s⁻¹ | 150000 M⁻¹ s⁻¹ | 75110_03C01A (antibody, V domains shown, Tested as non-clonal AlivaMab Mouse Kappa hybridoma supernatant, captured by anti-mouse IgG Fc sensor) VH: QVQLQQWGAGLLKPSETLSLTCAVYGGSFSGYYWSWIRQSPGKGLEWIGEINQSGSTNYNPSLKSRVTISVDTSKDQFSLKLSSVTAADTAVYYCARVINWFDSWGQGSLVTVSS VL: DIQMTQSPSSVSASVGDRVTITCRASQGISSWLAWYQQKPGNAPKLLIYDASSFQSGVPSRFSGSGSGTDFTLTISSLQTEDFATYYCQQANSFPYTFGQGTKLEIK
0.03 | < 0.001 nM | < 1e-07 s⁻¹ | 200000 M⁻¹ s⁻¹ | 75110_05B13A (antibody, V domains shown, Tested as non-clonal AlivaMab Mouse Kappa hybridoma supernatant, captured by anti-mouse IgG Fc sensor) VH: QVLLEQWGAGLLKPSETLSLTCAVYGGSFSGYYWTWIRQPPGKGLEWIGEINHRGSTNYNPSLKSRVTISIDTSKNQFSLKVKSVTAADTAMYYCTRPDSNWFDPWGQGTLVTVSS VL: DIQMTQSPSSVSASVGDRVTITCRASQDISNWLAWYQQKPGKAPKLLIFAASSLQSGVPSRFSGSGSGTDFTLTISSLQPEDFATYYCQQANSFPLTFGGGTKVEIK
0.106 | 0.627 nM | 9.63e-05 s⁻¹ | 154000 M⁻¹ s⁻¹ | 75110_12C19A (antibody, V domains shown, Tested as non-clonal AlivaMab Mouse Kappa hybridoma supernatant, captured by anti-mouse IgG Fc sensor) VH: EVQLVESGGGLVQPGGSLRLSCAASGFTFSSYWMSWVRQAPGKGLEWVANIKEDGSDKYYVDSVKGRFTISRDNAKNSLYLQMNSLRAEDTAVHYCVREGGQWLALDYWGQGTLVTVSS VL: DIQMTQSPSSVSGSVGDRVTITCRASQGISSWLAWYQQKPGKAPKLLIYGASSLQSGVPSRFSGSGSGTDFTLTISSLQPEDFVTYYCQQANSFPWTFGQGTKVEIK
0.13 | 15 nM | 0.0019 s⁻¹ | 130000 M⁻¹ s⁻¹ | 75110_09N20A (antibody, V domains shown, Tested as non-clonal AlivaMab Mouse Kappa hybridoma supernatant, captured by anti-mouse IgG Fc sensor) VH: EVQLVESGGGLVQPGGSLRLSCAASGFTFSSYWMSWVRQAPGKGLEWVANINEDGSEKYYVDSVKGRFTISRDNAKNSLYLQMNSLRAEDTAVYYCVREGGQWLALDYWGQGTLVTVSS VL: DIQMTQSPSSVSASVGDRVTITCRASQGISSWLAWYQQKPGKAPKLLIYAASSLQSGVPSSFSGSGSGTDFTLTINSLQPEDFATYYCQQANSFPWTFGQGTKVAIK
0.09 | 4.2 nM | 0.0012 s⁻¹ | 290000 M⁻¹ s⁻¹ | 75110_12H19A (antibody, V domains shown, Tested as non-clonal AlivaMab Mouse Kappa hybridoma supernatant, captured by anti-mouse IgG Fc sensor) VH: EVQLVESGGGLVQPGGSLRLSCAASGFTFSSYWMSWVRQAPGQGLEWVANINEDGNEKYHVDSVKGRLTISRDNAKNSLYLQMNSLRGVDTAVYFCAREGGQWLALDYWGQGALVTVSS VL: DIQMTQSPSSVSASVGDRVSITCRASQGISSWLAWYQQKPGKAPKLLIYGASGLQSGVPSRFSGSGSGTDFTLTISSLQPEDFATYYCQQANSFPWTFGQGTKVEIK
0.21 | 0.79 nM | 0.00013 s⁻¹ | 160000 M⁻¹ s⁻¹ | 75110_07B16A (antibody, V domains shown, Tested as non-clonal AlivaMab Mouse Kappa hybridoma supernatant, captured by anti-mouse IgG Fc sensor) VH: QVQLQQWGAGLLKPSETLSLTCAVYGGSFSGYYWSWIRQSPGKGLEWIGEINQSGSTNYNPSLKSRVTISVDTSKDQFSLKLSSVTAADTAVYYCARVINWFDSWGQGSLVTVSS VL: DIQMTQSPSSVSASVGDRVTITCRASQGISSWLAWYQQKPGKAPKLLIYDASSFQSGVPSRFSGSGSGTDFTLTISSLQTDDFATYYCQQANSFPYTFGQGTKLEIK
0.09 | 9.6 nM | 0.0032 s⁻¹ | 330000 M⁻¹ s⁻¹ | 75110_12H17A (antibody, V domains shown, Tested as non-clonal AlivaMab Mouse Kappa hybridoma supernatant, captured by anti-mouse IgG Fc sensor) VH: EVQLVESGGGLVQPGGSLRLSCAASGFTFSDYWMSWVRQAPGKGLEWVANIKEDGNEKYYVDSVKGRFTISRDNAKNSLFLQMNSLRAEDTAVYYCAREGGQWLALDYWGQGALVTVSS VL: DIQMTQSPSSVSASVGDRVTITCRASQGISSWLAWYQQKPGKAPKFLISGASSLQSGVPSRFTGSGSGTDFTLTISSLQPEDFATYYCQQANSFPWTFGQGTKVEIK
0.08 | 1.5 nM | 0.00051 s⁻¹ | 330000 M⁻¹ s⁻¹ | 75110_02E08A (antibody, V domains shown, Tested as non-clonal AlivaMab Mouse Kappa hybridoma supernatant, captured by anti-mouse IgG Fc sensor) VH: QVQLQESGPGLVKPSETLSLTCTVSGGSISTYYWTWIRQPAGKGLEWIGRVYTSGDTNYNPSLKSRVAMSLDTSKNQFSLKLSSVTAADTAVYYCARDSGALYSWNYGDAFDIWGQGTMVTVSS VL: DIQMTQSPSAMSASVGDRVTITCRASQDISNYLAWFQQKPGKVPKRLIYAASSLQSGVPSRFSGSGSGTEFTLTISSLQPEDFATYYCLQHNSYPRTFGQGTKVEIK
0.14 | 5.2 nM | 0.0012 s⁻¹ | 230000 M⁻¹ s⁻¹ | 75110_04B08A (antibody, V domains shown, Tested as non-clonal AlivaMab Mouse Kappa hybridoma supernatant, captured by anti-mouse IgG Fc sensor) VH: QVQLVESGGGVVQPGRSLRLSCTASGFNFINYGIHWVRQAPGKGLEWVTIIWYDGSKKYYADSVKGRFAISRDNSKNTLYLQMNSLRAEDTAVYYCAREDDWNDGLAYWGQGTLVTVSS VL: AIQMTQSPSSLSASVGDRVTITCRASQDIRNDLGWYQQKPGKAPNLLIYAASNLQSGVPSRFSGSGSGTDFTLTISSLQPEDFATYYCLQDSNYPRTFGQGTKVEIK
